Test results: the supplement of paper PMC12042874
± gives the uncertainty stated by the source.

Assay: amyloid nucleation score (Sup35N fusion, yeast selection) (log enrichment); library NNK1; higher = more nucleation; inactive = no reads after selection
Outline: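 The nucleation score is the DiMSum log enrichment of output over input reads, centred on the mode score of non-aggregating sequences. Only sequences with 100 or more input reads were scored, using Illumina sequencing of input and output plasmid inserts. Psi-negative yeast expressing Sup35N fused to peptides of 20 random codons were induced 24 hours with 100 μM copper sulfate and grown 7 days at 30°C on medium lacking adenine and uracil.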

Substance	amyloid nucleation score
NNACMSSYVVGYRSIVMVK	0.558 ± 1.1
NNDINFSDLFRCGERTYVFW	2.24 ± 0.18
NNGAVVSGS	-0.046 ± 0.25
NNKSEVF	1.46 ± 0.74
NNPDTMSI	0.44 ± 0.56
NNSSIVFLW	-0.057 ± 1.4
NNYYA	-0.616 ± 0.52
NPGRLRFTGTMRRTQKIEVA	-0.876 ± 0.49
NPHEDRGLESQSAPGGRKWR	1.74 ± 0.64
NPVGSSRVVYRAPNHVIV	1.18 ± 0.58
NRFNRYNVFPVYDQNLESPL	0.205 ± 0.38
NRIISLCSLSCDYLNLDWCI	7.13 ± 0.08
NRLATLVDVTVMQSNTFELL	0.748 ± 0.35
NRLIGGLFSCVCTADQSTHS	8.419 ± 0.047
NRSYNN	-0.243 ± 0.29
NRTDKKDTLRWLFPT	0.435 ± 0.81
NSDGSLSKTRKRAGAQVSRQ	0.312 ± 1.1
NSITAQRVWVPPFVCLGDRY	0.146 ± 0.44
NSKRTGASLRIELRLQFRKR	-0.215 ± 0.39
NSSYTCPNFRHTFCRYICYA	0.533 ± 0.27
NSWRRE	1.02 ± 0.93
NSYFWSGEIIIEYQRP	-1.23 ± 0.65
NTKELVYKMGCGVRYHGKWG	1.28 ± 0.71
NTLTMIHLIVLTELSLFK	0.297 ± 0.26
NTRYYFENNMR	-0.599 ± 0.4

Substance	amyloid nucleation score
NTSSFVSTNWSGFPWSGSRY	2.02 ± 0.24
NTTYQTYR	4.31 ± 0.074
NTVFL	0.549 ± 0.39
NTVIVPHLIILLDYSKVWAE	3.28 ± 0.069
NVANVV	-0.013 ± 1.2
NVDKHVWFGGVIVVNLWHIR	6.827 ± 0.054
NVGRHV	0.151 ± 0.9
NVHVFRNRSEITFKRASSWE	1.08 ± 0.9
NVKPSDDNVSLRNYGIRYLE	-0.29 ± 1.1
NVLWIPSSGISSVRLEGIAM	0.393 ± 0.46
NVMSSPCIRVGMLRMGVTKS	1.62 ± 0.51
NVTFEADLQLLCSRCSWFGT	3.17 ± 0.061
NVTFHSRSGV	-0.316 ± 0.84
NVVAYTCNFFCDGSLSGYLC	0.784 ± 0.41
NVYKFCDRAGLCAVGYYLGT	3.02 ± 0.081
NWFTSMRGLYVSLWYRMKKG	inactive
NWILSLAGFYRSSKVSSCTT	0.41 ± 0.67
NWNVGTQTKHVDNFLHKVIN	-0.315 ± 0.74
NWRFGLYSHIGIWLMVKS	1.86 ± 0.38
NWSCTYRMVVS	-0.598 ± 0.22
NWVGGYTEIALLA	-0.344 ± 0.78
NYASKLYFFLVVMSRFNRKG	-0.115 ± 1.7
NYGAFY	-0.13 ± 0.63
NYIMTRHPPLGISLPEVGRS	-0.81 ± 0.85
NYLERHMQHPMRTHVFRGQL	0.129 ± 0.72

Substance	amyloid nucleation score
NYLLWVQVWCRDWGNWGIMG	1.41 ± 0.81
NYRQHHKTSRVLRLDVGTEP	-0.252 ± 0.3
NYSEPDFKFHCVYGVYAMWG	0.403 ± 0.88
NYTVRENGSK	-0.127 ± 0.27
NYVSLGDVKRRMPGLFELTA	0.048 ± 0.43
PANIVAFGGLMSIPLVLPVL	-0.104 ± 0.4
PCSSVLLEHWSRYASRCEMV	1.28 ± 0.58
PCWGGTLGSVKLVVSSSA	inactive
PFEYLVRLIYCEDVAYLGTG	-0.148 ± 0.62
PFHGFGR	-1.04 ± 0.53
PFLQQNKIFNGLYEMTNWVA	inactive
PFLYIDSF	-1.2 ± 1.9
PFNKKFRYVMPRLQRTHVFM	inactive
PFTYYFEVQLILRKT	0.773 ± 0.79
PFVLYWGKLSYYDAD	0.707 ± 0.55
PFYLEARKVDEVMSLTYIV	-0.693 ± 0.67
PGLDFLGLLHQLISVFAIRL	0.111 ± 0.48
PGRSSRLR	-0.071 ± 1.1
PGSCFVMCCDLDKRKGSADE	-0.559 ± 0.62
PGVSDPYLDECKVTFKI	0.715 ± 0.31
PGYQTSWWYMLKCKTSSLNY	0.468 ± 0.47
PIFKMDCGDMVCT	0.121 ± 0.22
PIHGISFFDAYNL	-0.128 ± 1.4
PIHYEPSKAVYYTQFRGGMG	-0.184 ± 0.42
PIKVMIFVCNGFRKWHLMQH	0.268 ± 1.1

Substance	amyloid nucleation score
PKMPGMVYDTPN	-1.49 ± 2.4
PKSIGAFLTCHISRHVYYVI	1.08 ± 0.66
PLCHWKA	-0.325 ± 0.53
PLCLNRVMISAMGVRVR	-0.285 ± 0.73
PLNHNSY	1.47 ± 0.51
PLNSRTCGPFARSSIWDWDT	0.937 ± 0.9
PLTLFYLLNTHAVEFSKVNC	-0.674 ± 0.47
PLVFCIITGPCV	-0.468 ± 0.55
PLYGC	0.634 ± 0.72
PLYKAVLTDK	inactive
PMTTWYSVFCAEFL	0.688 ± 0.32
PNAVCGQWFEDQL	-0.269 ± 0.94
PNDPGKLSHGVSVVLYFDEL	1.5 ± 0.39
PNIRHYVYNHN	inactive
PNYHGVRGM	-0.086 ± 1.2
PPFDSDKA	0.335 ± 0.77
PQRRSHREKA	-0.557 ± 0.62
PQVGRAYNGGAGFLKYSTWD	0.229 ± 0.51
PRCSMRLLGYTPIYDGKS	-0.781 ± 1.1
PRDASWRTFVAKA	-0.026 ± 1.7
PRELEKFTLQKSGLHPWISL	-0.686 ± 1.4
PRLYGISRKSYVLSIFDVVS	0.245 ± 0.21
PRNPMRSESILFCGNFVGRK	-0.759 ± 0.59
PRYNCYQQHEVALDFSSLRC	-0.297 ± 0.54
PSFSDLSHALGSSLESWGYR	0.021 ± 0.8

Substance	amyloid nucleation score
PSNLRDWHSSQFNREEEDAY	0.467 ± 0.46
PSRATYCRGSMIHLIFDWIT	0.955 ± 0.54
PSRVKLKISKLL	-0.647 ± 0.94
PSTPQSHKMMGYRFRDRTGW	-1.03 ± 2.7
PSTTLFWLVMRKHILQHTRR	-0.215 ± 0.28
PTGNGKLFSGKYYPYDVRRS	-0.169 ± 0.29
PTGVMM	-0.338 ± 0.51
PTLVRECFEALSVSDYPVPG	-0.674 ± 1.7
PTMLKNRGVLSQPHIIFSYR	-0.333 ± 0.34
PTVLTVLFNRPFRSCN	-0.178 ± 0.61
PTYIKLILTAHYLSEFRSNV	1.02 ± 0.17
PVAVVGILHPVFDRRPMRTV	-0.031 ± 0.89
PVFCPRV	-1.55 ± 1.3
PVGNPLD	-0.039 ± 0.18
PVGRCDQRDTRIHWGNYKVE	inactive
PVLYNHCGVNLCPTLCLSNY	7.199 ± 0.053
PWCTGRLTGSNCKVYWITRS	0.515 ± 0.36
PWNLIISSYASYYTCKVLVS	-0.563 ± 1.1
PWSPTVIRPVFSEKGQFSQL	-0.538 ± 0.59
PWSRDARPSADW	inactive
PWVTLVRAMCMFINVDLVSR	0.201 ± 0.72
PYKLFHVVSCCRTQGDNVAK	-0.813 ± 0.49
PYKLGCICITNDFSQAPTVA	-0.652 ± 0.92
PYLYRTLKKPLATHWSQFVK	-1.22 ± 0.9
PYSSDAKMCHLLETASNLLV	0.577 ± 0.56

Substance	amyloid nucleation score
PYVFLGVMDPRVYDMLLHAN	-0.085 ± 0.24
PYVFPVRYYSTILWYAIYVR	0.558 ± 0.28
PYWSDKWVFCRLKVVFIHVL	-0.066 ± 0.69
PYWWS	inactive
QCRILAHAGLLPSGTCPMWL	-0.919 ± 0.92
QDCARH	inactive
QDFILDNCFPEGNLVCFKGV	0.361 ± 0.58
QDTVFYMTDWGCGATKARDD	0.117 ± 0.94
QEDRGPLLHFRLNSYNVMTQ	0.471 ± 0.62
QEGCQTLTSTSLVGGRKESS	0.872 ± 0.75
QELICMGSEYVFPNWTSFRA	-0.412 ± 0.49
QELWHMYSIYYVFRTGDHIY	-0.163 ± 0.27
QFDVVMMWQTE	-0.189 ± 0.3
QFFTILCTGILLLNASTRLL	-0.777 ± 2.4
QFMIICHMMVNNW	7.003 ± 0.044
QFSCIPESTYSS	0.047 ± 0.41
QGCPRVWRSQSCCGVGGVIP	inactive
QGINLVY	-0.342 ± 0.38
QGLNNMHSGVVLKMLT	1.22 ± 0.54
QGSDAYHSMNMQLWVSRTLT	0.18 ± 0.36
QGSPARMCVL	0.629 ± 1
QHCRA	0.639 ± 0.88
QHHSRRMNLGC	-0.407 ± 0.32
QHTNTSLSVTTPPVLYWNHC	0.419 ± 0.45
QHYMQVIDLGSWWSSWVYFI	-0.005 ± 0.97

Substance	amyloid nucleation score
QIIEPRARENGRINMMMVGG	0.481 ± 0.61
QILCLTVVSVFQGYSVMIPF	0.022 ± 0.32
QINLSGVSVDEWLSLWYGVL	0.468 ± 0.72
QIPPRDL	0.274 ± 0.51
QIRGGGAGSDSVDGHRALEA	1.08 ± 0.59
QISVGTYWFANWCGIILNQV	1.99 ± 0.28
QISVNQIY	inactive
QKIDNSIGQFYRKI	-1.15 ± 0.59
QKLCCLSNVVLNTGP	inactive
QLCGFITCIISMSLPGYQCE	7.816 ± 0.052
QLCGVVK	-1.07 ± 1.6
QLFMHPRGIMKGLF	0.581 ± 0.52
QLFVRFGRSARLVIAESQKA	-0.077 ± 0.33
QLNLNLFACQCSTV	8.072 ± 0.076
QMGCAYEDARRSHDFKCCFG	0.013 ± 0.42
QMTCSD	1.6 ± 0.8
QMYFSFYLLCCLSSEFSI	3.02 ± 0.11
QNFDHTIHRISVVVPGA	-0.099 ± 1.6
QNLYVLDSYSLLNNFVSCII	-0.623 ± 0.35
QNMLDWLKLGLYYHNFQAWV	-0.94 ± 2.7
QNMLFTIKRFSNQPDTVVFE	-0.202 ± 0.49
QNPFSTSHIVRSLLCLNDVI	inactive
QNRLS	2.28 ± 0.61
